Substitutions are numbered along the chain they refer to.

The labels stand for the following.
B1: anti-CD4 rat monoclonal antibody KM4067 (antibody, V domains shown)
VH: QVKLLQSGAALVKPGASVKMSCKASGYTFTDYWVHWVKQSHGKSLEWIGEIYPNNNTTNFNEKFKGKATLTVDKFTSTAYMELSRLTSEDSAIYYCTRGTVYYGLGYFDHWGQGVMVTVSS
VL: DIRMTQSPASLSASLGETVNIECLASEDVYSDLAWYQQKPGKSPQLLIYNANNLQSGVPSRFSGSGSGTRYSLKINSLQSEDVATYFCQQYNNYPPYTFGAGTKLELK
notes: Rat hybridoma IgG with a kappa light chain
B2: anti-CD4 rat monoclonal antibody KM4066 (antibody, V domains shown)
VH: EVQLEESGGGLVQPGRSLKLSCLASGFTFSNYGMNWIRQAPGKGLEWVASISGSSTYIYYADTVKGRFTISRENAENTLYLQMTSLRSEDTALYYCAREGSSTDRYYEVSFAYWGQGTLVTVSS
VL: DVVLTQTPVSLSVTLGDQASISCRSSQSLEYSDGYTYLEWYLQKPGQSPQVLIYGVSNRFSGVPDRFIGSGSGTDFTLKISRVEPEDLGVYYCFQATHDPYTFGAGTRLELK
notes: as for B1
B3: anti-CD4 rat monoclonal antibody KM4065 (antibody, V domains shown)
VH: EVQLVESGGGLVQPGRSMKLSCAASGFTFSNYGMAWVRQAPTKGLEWVATISYDGSITYYRDSVKGRFTISRDHAKSTLYLQMNSLRSEDTATYYCTREEQYSSWYFDFWGPGIMVTVSS
VL: DIVLTQSPALAVSLGQRATISCRASQSVSISSHDLMQWYQQKPGQQPKLLIYDAFNLASGIPVRFSGSGSGTDFTLTIDPVQADDIATYYCQQSKDDPYTFGAGTKLELK
notes: as for B1
B4: anti-CD4 rat monoclonal antibody KM4068 (antibody, V domains shown)
VH: QVQLKESGPGLVQPSQTLSLTCTVSGLSLTSNSVSWIRQPPGKGLEWMGIIWSNGDTDYNSAIKSRLSISRDTSKSQVFLKMNSLQTEDTAMYFCANPYYGYNFPFDYWGQGVMVTVSS
VL: DIQMTQSPASLSASLEEIVTITCKASQGIDNYLSWYQQKPGKSPQLLIYDATSLADGVPSRFSGSRSGTQYSLKISRPQVDDSGIYYCLQSYSTPFTFGSGTKLEIK
notes: as for B1
B5: anti-CD4 rat monoclonal antibody KM4069 (antibody, V domains shown)
VH: B4 VH with L27S, I50V, T57A, N97S, N103Y
VL: B4 VL with G28A, N31A
notes: as for B1
B6: anti-CD4 humanized antibody HV3LV0 (antibody, V domains shown)
VH: B3 VH with M18L, K19R, T42G, H74N, A75S, S77N, S88A, P112Q, M115L
VL: DIQLTQSPSSLSASVGDRVTITCRASQSVSISSHDLMQWYQQKPGKAPKLLIYDAFNLASGVPSRFSGSGSGTDFTLTISSLQPEDFATYYCQQSKDDPYTFGQGTKLEIK
notes: Expressed from the humanized antibody expression vector pKANTEX93
B7: anti-CD4 humanized antibody HV0LV0 (antibody, V domains shown)
VH: EVQLVESGGGLVQPGRSLRLSCAASGFTFSNYGMAWVRQAPGKGLEWVATISYDGSITYYRDSVKGRFTISRDNSKNTLYLQMNSLRAEDTAVYYCAREEQYSSWYFDFWGQGTLVTVSS
VL: B6 VL
notes: CDRs of KM4065 grafted into human framework regions; Expressed from the humanized antibody expression vector pKANTEX93
B8: anti-CD4 humanized antibody HV2LV0 (antibody, V domains shown)
VH: B7 VH with A97T, T114I
VL: B6 VL
notes: Expressed from the humanized antibody expression vector pKANTEX93; also called KM8045; humanized antibody KM8045
B9: anti-CD4 humanized antibody HV4LV0 (antibody, V domains shown)
VH: B7 VH with L18M, V93T, A97T, T114I
VL: B6 VL
notes: as for B6
B10: anti-CD4 human antibody 6G5-1 (antibody, V domains shown)
VH: QVQLQQWGAGLLKPSETLSLTCAVYGGSFSGYYWSWIRQPPGKGLEWIGEINHSGSTNYNPSLKSRVTISVDTSKNQFSLKLSSVTAADTAVYYCARVINWFDPWGQGTLVTVSS
VL: DIQMTQSPSSVSASVGDRVTITCRASQDISSWLAWYQHKPGKAPKLLIYAASSLQSGVPSRFSGSGSGTDFTLTISSLQPEDFATYYCQQANSFPYTFGQGTKLEIKR
B11: anti-CD4 chimeric antibody KM4047 (antibody, V domains shown)
VH: B1 VH
VL: B1 VL
notes: Variable regions of rat KM4067 joined to the '113F type' human IgG1/IgG3 heavy chain constant region (US2007/0148165) and a human kappa constant region; Expressed in FUT8 knockout CHO cells (0% fucose)
B12: anti-CD4 chimeric antibody KM4046 (antibody, V domains shown)
VH: B2 VH
VL: B2 VL
notes: Variable regions of rat KM4066 joined to the '113F type' human IgG1/IgG3 heavy chain constant region (US2007/0148165) and a human kappa constant region; Expressed in FUT8 knockout CHO cells (0% fucose)
B13: anti-CD4 chimeric antibody KM4048 (antibody, V domains shown)
VH: B4 VH
VL: B4 VL
notes: Variable regions of rat KM4068 joined to the '113F type' human IgG1/IgG3 heavy chain constant region (US2007/0148165) and a human kappa constant region; Expressed in FUT8 knockout CHO cells (0% fucose)
B14: anti-CD4 chimeric antibody KM4049 (antibody, V domains shown)
VH: B4 VH with L27S, I50V, T57A, N97S, N103Y
VL: B4 VL with G28A, N31A
notes: Variable regions of rat KM4069 joined to the '113F type' human IgG1/IgG3 heavy chain constant region (US2007/0148165) and a human kappa constant region; Expressed in FUT8 knockout CHO cells (0% fucose)

The first assay addresses T1, recombinant human CD4 (catalogue number: 514-CD/CF, manufactured by R&D Systems) (human, UniProt P01730 26-390).
T1 construct: Bought protein (R&D Systems); also called recombinant CD4
Briefly: SPR, Biacore T100; antibody captured on anti-mouse IgG chip, recombinant human CD4 flowed; 1:1 binding model. The protocol:
In order to kinetically analyze the binding activity of anti-CD4 rat monoclonal antibodies KM4065 to KM4069 and commercially available anti-human CD4 mouse antibody for recombinant human CD4, the binding activity was measured by surface plasmon resonance method (SPR). All of the following manipulations were carried out using the Biacore T100 (manufactured by GE Healthcare Bio-Sciences). The anti-mouse IgG antibody was immobilized on a CM5 sensor chip (manufactured by GE Healthcare Bio-Sciences) by an amine coupling method using a Mouse Antibody Capture Kit (manufactured by GE Healthcare Bio-Sciences) in accordance with the protocols attached thereto. Anti-CD4 rat monoclonal antibodies KM4065 to KM4069, Leu-3a (BD Biosciences), OKT4 (BioLegend) and 13B8.2 (Beckman Coulter) were added to be captured on the anti-mouse IgG antibody-immobilized chip to give 100 RU (resonance unit), respectively. Thereafter, the recombinant human CD4 (manufactured by R&D) diluted from 2500 ng/mL in five steps was allowed to run at a flow rate of 30 μL/min onto the chip, and the sensorgram corresponding to each concentration was obtained. The analysis was carried out in the 1:1 binding model using an analysis software attached to the apparatus, thereby calculating an association rate constant ka and a dissociation rate constant kd of individual antibodies for the human CD4.
As a result, an association rate constant (hereinafter, referred to as “ka”), a dissociation rate constant (hereinafter, referred to as “kd”) and a dissociation constant KD (kd/ka) of individual antibodies thus obtained are given in Table 2.
In general terms: SPR reads the build-up and loss of mass on a sensor chip optically.
One may read the Kd as a measure of binding affinity in units of concentration. The term koff denotes the first-order rate constant of dissociation. Broadly, the kon is the second-order rate constant of association. B1: the Kd worked out at 0.541 nM, the koff is 0.000473 s⁻¹ and the kon came out at 875000 M⁻¹ s⁻¹.
Turning to B2, the dissociation constant (Kd) was 0.0882 nM, the dissociation rate constant (koff) came to 0.000118 s⁻¹ and the kon amounted to 1.34e+06 M⁻¹ s⁻¹.
On to B3, for which the Kd came out at 0.00426 nM, the koff is 1.52e-06 s⁻¹ and the kon amounted to 357000 M⁻¹ s⁻¹.
In the case of B4, the Kd is 1.1 nM, the koff was 0.00204 s⁻¹ and the kon worked out at 1.85e+06 M⁻¹ s⁻¹.
Consider B5, for which the Kd came out at 0.482 nM, the koff is 0.000584 s⁻¹ and the kon was 1.21e+06 M⁻¹ s⁻¹.

Another assay deals with T1, recombinant human CD4 (catalogue …). Briefly: SPR, Biacore T100; summary sentence to Table 6.
B6: the Kd is at most 0.1 nM.
With B7, the Kd was at most 0.1 nM.
B8: the Kd was at most 0.1 nM.
Same read-out and setting: then B9, with at most 0.1 nM.

The next assay shares this target. Description: SPR, Biacore T100; antibody captured on anti-human IgG chip, recombinant human CD4 flowed; 1:1 binding model. The method, then: (§1) In order to kinetically analyze the binding activity of anti-CD4 chimeric antibodies KM4045 to KM4049, 6G5-1 and 6G5-P to recombinant human CD4, the binding activity was measured by surface plasmon resonance method (SPR). All of the following manipulations were carried out using a Biacore T100 (manufactured by GE Healthcare Bio-Sciences). The anti-human IgG antibody was immobilized on a CM5 sensor chip (manufactured by GE Healthcare Bio-Sciences) by an amine coupling method using a Human Antibody Capture Kit (manufactured by GE Healthcare Bio-Sciences) in accordance with the protocols attached thereto. An assay sample (anti-CD4 chimeric antibodies KM4045 to KM4049) was added to be captured on the anti-human IgG antibody-immobilized chip to give 100 RU (resonance unit). Thereafter, the recombinant human CD4 (manufactured by R&D) diluted from 2500 ng/mL in five steps was allowed to run at a flow rate of 30 μL/min onto the chip, and the sensorgram corresponding to each concentration was obtained. The analysis was carried out in the 1:1 binding model using an analysis software attached to the apparatus, Biacore T100 Evaluation software (manufactured by Biacore), thereby calculating an association rate constant ka and a dissociation rate constant kd of respective antibodies for human CD4.
As a result, an association rate constant ka, a dissociation rate constant kd, and a dissociation constant KD (kd/ka) of individual antibodies thus obtained are given in Table 5.
As for B10, the Kd stood at 1.46 nM, the koff stood at 0.000872 s⁻¹ and the kon was 595000 M⁻¹ s⁻¹.
For the molecule B11, the Kd amounted to 0.369 nM, the dissociation rate constant (koff) is 0.000488 s⁻¹ and the kon is 1.33e+06 M⁻¹ s⁻¹.
On to B12, for which the Kd came out at 0.0614 nM, the koff amounted to 5.12e-05 s⁻¹ and the kon is 834000 M⁻¹ s⁻¹.
In the case of B13, the Kd stood at 0.651 nM, the dissociation rate constant (koff) was 0.00381 s⁻¹ and the kon worked out at 5.85e+06 M⁻¹ s⁻¹.
On the same counts, the results for B14 are 0.2 nM, 0.00116 s⁻¹ and 5.77e+06 M⁻¹ s⁻¹.

For a further assay the target is unchanged. Description: Biacore T100.
Turning to B6, the “binding activity relative to the anti-CD4 chimeric antibody KM4045” value is 0.5 fold of KM4045.
In the case of B8, the “binding activity relative to the anti-CD4 chimeric antibody KM4045” value is 0.5 fold of KM4045.
Regarding B9, the “binding activity relative to the anti-CD4 chimeric antibody KM4045” value is 0.5 fold of KM4045.

The target is the same in a further assay. Description: SPR, Biacore T100; antibody captured on anti-human IgG chip, recombinant human CD4 flowed; 1:1 binding model. This is another data set of the same source. The method, then:
as §1
The measurement of a binding activity was carried out according to the method described in Example 7(2). The association rate constant ka, the dissociation rate constant kd and the dissociation constant KD (kd/ka) of respective antibodies thus obtained are shown in Table 6.
As to B10, the Kd is 1.54 nM, the koff came to 0.000824 s⁻¹ and the on-rate constant (kon) came out at 534000 M⁻¹ s⁻¹.
In the case of B6, the Kd is under 0.00752 nM, the dissociation rate constant (koff) is under 1e-05 s⁻¹ and the kon was found to be 1.33e+06 M⁻¹ s⁻¹.
As for B7, the Kd came to 0.0195 nM, the koff is 2.86e-05 s⁻¹ and the kon came out at 1.47e+06 M⁻¹ s⁻¹.
Regarding B8, the dissociation constant Kd was under 0.00877 nM, the koff was under 1e-05 s⁻¹ and the kon was determined as 1.14e+06 M⁻¹ s⁻¹.
As to B9, the Kd is under 0.0126 nM, the koff is under 1e-05 s⁻¹ and the kon was 791000 M⁻¹ s⁻¹.
